Laboratory results from the supplement of paper PMC9112550, “Optimization of the antimicrobial peptide Bac7 by deep mutational scanning” (BMC Biology, 2022).

Tested on: Escherichia coli TOP10
Experiment: shrunken log2 fold change of peptide-encoding DNA abundance (4.5 h post-induction vs induction); higher = less antimicrobial activity (less host growth inhibition)
Settings: time post-induction: 4.5 h; library: site-saturation at positions 5, 18, 19, 20
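Note: peptides expressed intracellularly from a pBAD plasmid library in pooled LB shake-flask culture, induced with 0.3% L-arabinose, DNA abundance read by NGS, three biological replicates, DESeq2 with apeglm shrinkage.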

Point of comparison: RRIRARPPRLPRPRPRPDYCPRP, “shrunken log2 fold change” value -0.17. Against it:
- RRIRARPPRLPRPRPRPAASPRP — higher, 0.928
- RRIRARPPRLPRPRPRPACKPRP — higher, 0.558
- RRIRARPPRLPRPRPRPACLPRP — higher, 0.347
- RRIRARPPRLPRPRPRPACMPRP — higher, 0.313
- RRIRARPPRLPRPRPRPACNPRP — higher, 0.089
- RRIRARPPRLPRPRPRPACQPRP — higher, 0.486
- RRIRARPPRLPRPRPRPADVPRP — higher, 0.118
- RRIRARPPRLPRPRPRPAEFPRP — higher, 0.304
- RRIRARPPRLPRPRPRPAEYPRP — within 0.2 log units, -0.0257
- RRIRARPPRLPRPRPRPAFMPRP — higher, 0.525
- RRIRARPPRLPRPRPRPAGGPRP — higher, 0.678
- RRIRARPPRLPRPRPRPAHAPRP — higher, 1.07
- RRIRARPPRLPRPRPRPAIEPRP — higher, 0.396
- RRIRARPPRLPRPRPRPAIGPRP — higher, 0.714
- RRIRARPPRLPRPRPRPAIQPRP — higher, 0.228
- RRIRARPPRLPRPRPRPAKAPRP — higher, 0.332
- RRIRARPPRLPRPRPRPAKPPRP — higher, 0.127
- RRIRARPPRLPRPRPRPALRPRP — higher, 0.363
- RRIRARPPRLPRPRPRPALTPRP — higher, 0.642
- RRIRARPPRLPRPRPRPALWPRP — higher, 0.833
- RRIRARPPRLPRPRPRPAQNPRP — higher, 0.333
- RRIRARPPRLPRPRPRPARQPRP — higher, 0.766
- RRIRARPPRLPRPRPRPATMPRP — higher, 0.413
- RRIRARPPRLPRPRPRPATQPRP — higher, 0.437
- RRIRARPPRLPRPRPRPAVGPRP — higher, 0.512
- RRIRARPPRLPRPRPRPCAFPRP — higher, 0.303
- RRIRARPPRLPRPRPRPCCMPRP — within 0.2 log units, -0.0671
- RRIRARPPRLPRPRPRPCDAPRP — higher, 0.344
- RRIRARPPRLPRPRPRPCEAPRP — higher, 0.762
- RRIRARPPRLPRPRPRPCFKPRP — within 0.2 log units, 0.0174
- RRIRARPPRLPRPRPRPCFQPRP — higher, 0.105
- RRIRARPPRLPRPRPRPCGGPRP — higher, 0.425
- RRIRARPPRLPRPRPRPCGRPRP — higher, 0.526
- RRIRARPPRLPRPRPRPCHQPRP — within 0.2 log units, -0.34
- RRIRARPPRLPRPRPRPCICPRP — within 0.2 log units, -0.0352
- RRIRARPPRLPRPRPRPCKNPRP — higher, 0.138
- RRIRARPPRLPRPRPRPCKSPRP — higher, 0.0355
- RRIRARPPRLPRPRPRPCLKPRP — within 0.2 log units, -0.0264
- RRIRARPPRLPRPRPRPCLVPRP — higher, 0.0528
- RRIRARPPRLPRPRPRPCQVPRP — lower, -0.47
- RRIRARPPRLPRPRPRPCRGPRP — within 0.2 log units, -0.1
- RRIRARPPRLPRPRPRPCRLPRP — within 0.2 log units, -0.0461
- RRIRARPPRLPRPRPRPCTAPRP — within 0.2 log units, -0.147
- RRIRARPPRLPRPRPRPCTNPRP — higher, 0.109
- RRIRARPPRLPRPRPRPCTYPRP — within 0.2 log units, -0.173
- RRIRARPPRLPRPRPRPCVDPRP — higher, 0.581
- RRIRARPPRLPRPRPRPCWGPRP — higher, 0.205
- RRIRARPPRLPRPRPRPCWNPRP — within 0.2 log units, -0.0387
- RRIRARPPRLPRPRPRPDAQPRP — higher, 1.35
- RRIRARPPRLPRPRPRPDCCPRP — higher, 0.172
- RRIRARPPRLPRPRPRPDCMPRP — higher, 0.386
- RRIRARPPRLPRPRPRPDDIPRP — higher, 0.0386
- RRIRARPPRLPRPRPRPDDYPRP — within 0.2 log units, -0.0457
- RRIRARPPRLPRPRPRPDELPRP — higher, 0.63
- RRIRARPPRLPRPRPRPDGYPRP — higher, 0.647
- RRIRARPPRLPRPRPRPDLCPRP — higher, 0.393
- RRIRARPPRLPRPRPRPDMHPRP — within 0.2 log units, -0.00915
- RRIRARPPRLPRPRPRPDNAPRP — higher, 0.311
- RRIRARPPRLPRPRPRPDQFPRP — higher, 0.389
- RRIRARPPRLPRPRPRPDRPPRP — higher, 0.448
- RRIRARPPRLPRPRPRPDTNPRP — within 0.2 log units, -0.0188
- RRIRARPPRLPRPRPRPDVFPRP — higher, 0.176
- RRIRARPPRLPRPRPRPDVLPRP — higher, 0.579
- RRIRARPPRLPRPRPRPDVMPRP — higher, 0.0669
- RRIRARPPRLPRPRPRPDWIPRP — within 0.2 log units, -0.0382
- RRIRARPPRLPRPRPRPDWLPRP — higher, 0.432
- RRIRARPPRLPRPRPRPDWVPRP — higher, 0.517
- RRIRARPPRLPRPRPRPDYDPRP — higher, 0.0454
- RRIRARPPRLPRPRPRPEDPPRP — higher, 0.823
- RRIRARPPRLPRPRPRPEENPRP — higher, 1.26
- RRIRARPPRLPRPRPRPEERPRP — higher, 1.11
- RRIRARPPRLPRPRPRPEEWPRP — higher, 0.0407
- RRIRARPPRLPRPRPRPEFDPRP — higher, 1.44
- RRIRARPPRLPRPRPRPEFEPRP — higher, 0.75
- RRIRARPPRLPRPRPRPEGAPRP — higher, 1.37
- RRIRARPPRLPRPRPRPEGDPRP — higher, 1.39
- RRIRARPPRLPRPRPRPEGHPRP — higher, 0.223
- RRIRARPPRLPRPRPRPEGKPRP — higher, 0.702
- RRIRARPPRLPRPRPRPEIEPRP — higher, 0.719
- RRIRARPPRLPRPRPRPEINPRP — higher, 0.96
- RRIRARPPRLPRPRPRPEIVPRP — higher, 0.553
- RRIRARPPRLPRPRPRPEKHPRP — higher, 0.0578
- RRIRARPPRLPRPRPRPELCPRP — higher, 0.92
- RRIRARPPRLPRPRPRPELRPRP — higher, 1.14
- RRIRARPPRLPRPRPRPENCPRP — higher, 0.177
- RRIRARPPRLPRPRPRPENPPRP — higher, 1.14
- RRIRARPPRLPRPRPRPEPHPRP — higher, 0.374
- RRIRARPPRLPRPRPRPEPQPRP — higher, 0.862
- RRIRARPPRLPRPRPRPEPTPRP — higher, 0.832
- RRIRARPPRLPRPRPRPEPWPRP — higher, 0.742
- RRIRARPPRLPRPRPRPEQWPRP — higher, 0.0858
- RRIRARPPRLPRPRPRPERFPRP — higher, 0.0769
- RRIRARPPRLPRPRPRPERRPRP — higher, 0.77
- RRIRARPPRLPRPRPRPESNPRP — higher, 0.553
- RRIRARPPRLPRPRPRPESSPRP — higher, 2.39
- RRIRARPPRLPRPRPRPEVFPRP — higher, 0.401
- RRIRARPPRLPRPRPRPEVHPRP — higher, 3.57
- RRIRARPPRLPRPRPRPEVVPRP — higher, 1.32
- RRIRARPPRLPRPRPRPEWQPRP — higher, 0.105
- RRIRARPPRLPRPRPRPEYLPRP — within 0.2 log units, -0.00441
- RRIRARPPRLPRPRPRPEYQPRP — higher, 0.118
- RRIRARPPRLPRPRPRPFCCPRP — higher, 0.206
- RRIRARPPRLPRPRPRPFDHPRP — lower, -0.394
- RRIRARPPRLPRPRPRPFDYPRP — within 0.2 log units, -0.245
- RRIRARPPRLPRPRPRPFEMPRP — higher, 0.135
- RRIRARPPRLPRPRPRPFHYPRP — lower, -0.371
- RRIRARPPRLPRPRPRPFIGPRP — lower, -0.457
- RRIRARPPRLPRPRPRPFIIPRP — within 0.2 log units, -0.264
